According to patent publication US20260201008A1, “SECRETIN-DERIVED GLP1R SELECTIVE AGONISTS” (GUBRA A/S, priority 2023, published 2026):
Numbered stars: 1 amine (or outer) side, 2 acyl side, 3 side chain; on linkers, the order of the positions; unused ones are H or OH. Square brackets hold non-standard residues; d marks the D form. Side chains are listed from the residue outwards. Ends that are not written are not given here. * marks the point of attachment. C20 diacid = O=C(O)CCCCCCCCCCCCCCCCCCC(=O)*; γGlu = O=C(O)[C@H](CCC(=O)[*:2])N[*:1]; AEEA = NCCOCCOCC(=O)O; Aib = CC(C)(N)C(=O)O

Key:
[1] = target: human secretin receptor (hSCTR) (human, UniProt P47872 23-440); assay: cell-based or functional assay
[2] = target: human GLP-1 receptor (hGLP1R) (human, UniProt P43220 24-463); assay: cell-based or functional assay

Chain of human secretin receptor (hSCTR) (P47872 23-440): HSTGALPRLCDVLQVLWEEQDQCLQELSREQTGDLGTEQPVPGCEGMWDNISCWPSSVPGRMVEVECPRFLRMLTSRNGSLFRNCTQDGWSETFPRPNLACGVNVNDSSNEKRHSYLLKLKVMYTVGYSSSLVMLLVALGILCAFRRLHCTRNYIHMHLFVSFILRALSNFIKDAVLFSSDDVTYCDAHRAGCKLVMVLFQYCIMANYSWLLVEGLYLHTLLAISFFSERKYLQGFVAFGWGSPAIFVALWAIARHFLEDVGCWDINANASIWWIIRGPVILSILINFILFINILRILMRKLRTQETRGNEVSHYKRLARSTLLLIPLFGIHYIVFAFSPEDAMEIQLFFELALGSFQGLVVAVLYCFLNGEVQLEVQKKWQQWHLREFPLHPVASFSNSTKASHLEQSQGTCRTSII

Binder | pEC50 hSCTR [1] | pEC50 hGLPR1 [2]
H[Aib]EGTFTSDVSTLK([AEEA-AEEA-γGlu-C20 diacid])E[Aib]AAQQRFLEHLV-NH2 [SEQ ID NO: 88] | 6.8 -log M | 11.4 -log M
H[Aib]EGTFTSDVSTLK([AEEA-AEEA-γGlu-C20 diacid])EEAA[Aib]QRFLEHLV-NH2 [SEQ ID NO: 77] | 5.8 -log M | 10.7 -log M
H[Aib]EGTFTSDVSVLK([AEEA-AEEA-γGlu-C20 diacid])EEAAQQRFLEHLV-NH2 [SEQ ID NO: 90] | 5.8 -log M | 10.5 -log M
H[Aib]EGTFTSDVSYLKEEAAEQRFLEHLV-NH2 (not fully specified (residue 14)) [SEQ ID NO: 95] | 4.8 -log M | 10.7 -log M
H[Aib]EGTFTSDVSFLK([AEEA-AEEA-γGlu-C20 diacid])EFAASQRFLEHLV-NH2 [SEQ ID NO: 91] | 4.5 -log M | 9.5 -log M
H[Aib]EGTFTSDVSRLK([AEEA-AEEA-γGlu-C20 diacid])EEAAQQRFLEHLV-NH2 [SEQ ID NO: 73] | 7.1 -log M | 11.2 -log M
H[Aib]EGTFTSDVSFLK([AEEA-AEEA-γGlu-C20 diacid])EFAAAQRFLEHLV-NH2 [SEQ ID NO: 84] | 5.4 -log M | 10.1 -log M
H[Aib]EGTFTSDVSELK([AEEA-AEEA-γGlu-C20 diacid])ELAATQRFLEHLV-NH2 [SEQ ID NO: 80] | 6.1 -log M | 10.7 -log M
H[Aib]EGTFTSDVSTLK([AEEA-AEEA-γGlu-C20 diacid])ELAA[Aib]QRFLEHLV-NH2 [SEQ ID NO: 79] | 5.5 -log M | 10 -log M
H[Aib]EGTFTSDVSYLK([AEEA-AEEA-γGlu-C20 diacid])EEAASQRFLEHLV-NH2 [SEQ ID NO: 75] | 5.5 -log M | 10.6 -log M
H[Aib]EGTFTSDVSRLK([AEEA-AEEA-γGlu-C20 diacid])ELAA[Aib]QRFLEHLV-NH2 (also: K14 lipid also given as C18DA[γE][OEG][OEG]-) [SEQ ID NO: 10] | 6.3 -log M | 9.7 -log M
H[Aib]EGTFTSDVSELK([AEEA-AEEA-γGlu-C20 diacid])E[Aib]AA[Aib]QRFLEHLV-NH2 [SEQ ID NO: 7] | 6 -log M | 10.2 -log M
H[Aib]EGTFTSDVSRLK([AEEA-AEEA-γGlu-C20 diacid])EFAA[Aib]QRFLEHLV-NH2 [SEQ ID NO: 68] | 5.9 -log M | 10 -log M
H[Aib]EGTFTSDVSRLK([AEEA-AEEA-γGlu-C20 diacid])E[Aib]AAAQRFLEHLV-NH2 [SEQ ID NO: 81] | 7.1 -log M | 10.1 -log M
H[Aib]EGTFTSDVSTLK([AEEA-AEEA-γGlu-C20 diacid])ELAAEQRFLEHLV-NH2 [SEQ ID NO: 78] | 5.4 -log M | 10.3 -log M
H[Aib]EGTFTSDVSYLK([AEEA-AEEA-γGlu-C20 diacid])EFAASQRFLEHLV-NH2 [SEQ ID NO: 66] | 5.5 -log M | 10.4 -log M
H[Aib]EGTFTSDVSYLK([AEEA-AEEA-γGlu-C20 diacid])ELAAAQRFLEHLV-NH2 [SEQ ID NO: 86] | 5.4 -log M | 9.7 -log M
H[Aib]EGTFTSDVSYLKE[Aib]AAQQRFLEHLV-NH2 (not fully specified (residue 14)) [SEQ ID NO: 94] | 6 -log M | 11 -log M
H[Aib]EGTFTSDVSYLK([AEEA-AEEA-γGlu-C20 diacid])ETAAEQRFLEHLV-NH2 [SEQ ID NO: 69] | 4.8 -log M | 10.8 -log M
H[Aib]EGTFTSDVSRLK([AEEA-AEEA-γGlu-C20 diacid])EFAAEQRFLEHLV-NH2 [SEQ ID NO: 72] | 6 -log M | 10 -log M

Binder | pEC50 hSCTR [1] | pEC50 hGLPR1 [2]
H[Aib]EGTFTSDVSELKEEAA[Aib]QRFLEHLV-NH2 (not fully specified (residue 14)) [SEQ ID NO: 97] | 5.8 -log M | 11 -log M
H[Aib]EGTFTSDVSFLK([AEEA-AEEA-γGlu-C20 diacid])ETAATQRFLEHLV-NH2 [SEQ ID NO: 70] | 7 -log M | 10.7 -log M
H[Aib]EGTFTSDVSRLK([AEEA-AEEA-γGlu-C20 diacid])EEAATQRFLEHLV-NH2 [SEQ ID NO: 65] | 7.6 -log M | 11.5 -log M
H[Aib]EGTFTSDVSELK([AEEA-AEEA-γGlu-C20 diacid])EEAASQRFLEHLV-NH2 [SEQ ID NO: 87] | 5.8 -log M | 10.4 -log M
H[Aib]EGTFTSDVSFLK([AEEA-AEEA-γGlu-C20 diacid])E[Aib]AASQRFLEHLV-NH2 [SEQ ID NO: 74] | 4.9 -log M | 10.2 -log M
H[Aib]EGTFTSDVSYLK([AEEA-AEEA-γGlu-C20 diacid])EFAAQQRFLEHLV-NH2 [SEQ ID NO: 76] | 5 -log M | 10.1 -log M
H[Aib]EGTFTSDVSRLK([AEEA-AEEA-γGlu-C20 diacid])E[Aib]AA[Aib]QRFLEHLV-NH2 [SEQ ID NO: 64] | 6.5 -log M | 10.2 -log M
H[Aib]EGTFTSDVSELK([AEEA-AEEA-γGlu-C20 diacid])E[Aib]AATQRFLEHLV-NH2 [SEQ ID NO: 82] | 7 -log M | 11 -log M
H[Aib]EGTFTSDVSELK([AEEA-AEEA-γGlu-C20 diacid])EFAASQRFLEHLV-NH2 [SEQ ID NO: 8] | 5.8 -log M | 10.3 -log M
H[Aib]EGTFTSDVSFLK([AEEA-AEEA-γGlu-C20 diacid])EEAAQQRFLEHLV-NH2 [SEQ ID NO: 83] | 5.8 -log M | 10.5 -log M
H[Aib]EGTFTSDVSVLK([AEEA-AEEA-γGlu-C20 diacid])EFAASQRFLEHLV-NH2 [SEQ ID NO: 92] | 5.8 -log M | 10.1 -log M
H[Aib]EGTFTSDVSELKEEAAAQRFLEHLV-NH2 (not fully specified (residue 14)) [SEQ ID NO: 98] | 5.9 -log M | 10.6 -log M
H[Aib]EGTFTSDVSRLK([AEEA-AEEA-γGlu-C20 diacid])ETAASQRFLEHLV-NH2 [SEQ ID NO: 71] | 6 -log M | 10.2 -log M
H[Aib]EGTFTSDVSRLK([AEEA-AEEA-γGlu-C20 diacid])ELAAAQRFLEHLV-NH2 [SEQ ID NO: 9] | 6 -log M | 10.2 -log M
H[Aib]EGTFTSDVSTLK([AEEA-AEEA-γGlu-C20 diacid])EFAAEQRFLEHLV-NH2 [SEQ ID NO: 89] | 5.7 -log M | 10.7 -log M
H[Aib]EGTFTSDVSTLK([AEEA-AEEA-γGlu-C20 diacid])ETAATQRFLEHLV-NH2 (not fully specified) [SEQ ID NO: 93] | 6.5 -log M | 11 -log M
H[Aib]EGTFTSDVSRLK([AEEA-AEEA-γGlu-C20 diacid])ETAA[Aib]QRFLEHLV-NH2 [SEQ ID NO: 85] | 5.8 -log M | 9.9 -log M
H[Aib]EGTFTSDVSTLKEEAAAQRFLEHLV-NH2 (not fully specified (residue 14)) [SEQ ID NO: 96] | 6.4 -log M | 10.9 -log M
H[Aib]EGTFTSDVSTLK([AEEA-AEEA-γGlu-C20 diacid])ELAATQRFLEHLV-NH2 [SEQ ID NO: 67] | 6.4 -log M | 10.3 -log M
H[Aib]EGTFTSDVSELKELAAQQRFLEHLV-NH2 (not fully specified (residue 14)) [SEQ ID NO: 99] | 6.1 -log M | 10.8 -log M
